Test results published in patent US20200002439A1 (GENSUN BIOPHARMA, published 2020).

What was measured:
[1] = biological target: human TGFβ1 (human, UniProt P01137 279-390); assay: cell-based or functional assay
[2] = biological target: T1, recombinant human VEGF 165 (human, UniProt P15692-4 27-191); assay: blocking ELISA: VEGF-165 coated on the plate, binding of recombinant human VEGFR-2-hu IgG1-His Tag is blocked
T1 construct: Bought protein
Method: Briefly, 0.5 ug/ml of recombinant human VEGF-165 (R&D #293-VE-050/CF) in carbonate-bicarbonate buffer was coated to the wells in a 96-well assay plate and incubated overnight at 4° C. The wells were then washed 3 times with 0.05% Tween 20 in PBS (wash buffer), blocked with 1% BSA in PBS for 1 hour at room temperature, and washed 3 times with wash buffer. 50 μl 5-fold serially diluted antibodies were then added to wells in the plate and incubated for 30 minutes at room temperature. […] 100 μl anti-His tag HRP (1:10,000) was then added and the plates were incubated for 40 mins at room temperature and washed 3 times with wash buffer.

[3] = biological target: T2, human PD-1 on transfected CHO-K1 cells (human, UniProt Q15116 25-288); assay: cell-based blocking assay, flow cytometry: binding of FITC labeled human PD-L1-Fc to human PD-1 transfected CHO-K1 cells is blocked
T2 construct: also called Human PD-1 transfected CHO-K1 cells
T2 sequence (Q15116 25-288 limits assumed): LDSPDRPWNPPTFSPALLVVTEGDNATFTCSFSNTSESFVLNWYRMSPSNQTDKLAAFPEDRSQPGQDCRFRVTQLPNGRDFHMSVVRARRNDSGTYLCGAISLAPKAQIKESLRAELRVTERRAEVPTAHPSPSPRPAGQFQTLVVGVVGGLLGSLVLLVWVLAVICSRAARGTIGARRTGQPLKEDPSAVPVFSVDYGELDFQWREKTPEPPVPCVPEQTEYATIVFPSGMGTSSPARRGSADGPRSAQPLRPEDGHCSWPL
Method: Incubate for 15 mins before analysis with the iQue intellicyt system.

[4] = biological target: T1, recombinant human VEGF 165; assay: blocking ELISA: VEGF 165 coated on the plate, binding of recombinant human VEGFR-2 is blocked
Method: (§1) In brief, 96-well assay plates were coated with 0.5 ug/ml of recombinant human VEGF 165 (R&D) in carbonate-bicarbonate buffer (pH 9.6) at 4° C. overnight followed by blocking with 1% BSA/PBS for 1 hour at room temperature. Serially diluted antibodies were then added to the plate and incubated for 30 minutes at room temperature. […] Followed by washing with Wash Buffer, goat anti-mouse IgG-HRP were added to the plate and incubated for 1 hour at room temperature. […] IC50 values were determined as the mid-point in the activity curve.

[5] = biological target: T1, recombinant human VEGF 165; assay: as above; remark: listed apart in the source
Method: as §1

T1 sequence (P15692 other isoform, or with tags, fused parts or gaps limits assumed): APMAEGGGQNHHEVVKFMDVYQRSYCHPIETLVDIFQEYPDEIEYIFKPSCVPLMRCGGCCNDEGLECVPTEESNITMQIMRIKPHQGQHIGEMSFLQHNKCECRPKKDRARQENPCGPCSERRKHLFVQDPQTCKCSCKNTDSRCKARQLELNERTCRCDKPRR
human TGFβ1, sequence (P01137 279-390 limits assumed): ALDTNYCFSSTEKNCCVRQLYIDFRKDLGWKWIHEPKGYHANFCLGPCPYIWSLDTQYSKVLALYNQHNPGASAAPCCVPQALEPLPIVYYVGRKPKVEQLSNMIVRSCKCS

IC50; luciferase signal of TGFβ/SMAD SBE Reporter-HEK293 cells stimulated with human TGFβ1 [1] | IC50 [2] | IC50 [3] | IC50 [4] | IC50 [5] | Binder
2.95 nM | 7.71 nM | 2.39 nM | – | – | TS-ZPB-3(2P17) (other) heavy: QVQLVQSGAEVKKPGASVKVSCKASGYTFTSYYIHWVRQAPGQGLEWMGWIFPGSGNSKYNENFKGRVTLTADTSTSTVYMELSSLRSEDTAVYYCASETYDYGDYWGQGTLVTVSSASTKGPSVFPLAPCSRSTSESTAALGCLVKDYFPEPVTVSWNSGALTSGVHTFPAVLQSSGLYSLSSVVTVPSSSLGTKTYTCNVDHKPSNTKVDKRVESKYGPPCPPCPAPEFLGGPSVFLFPPKPKDTLMISRTPEVTCVVVDVSQEDPEVQFNWYVDGVEVHNAKTKPREEQFNSTYRVVSVLTVLHQDWLNGKEYKCKVSNKGLPSSIEKTISKAKGQPREPQVYTLPPSQEEMIPPHVQKSVNNDMIVTDNNGAVKFPQLCKFCDVRFSTCDNQKSCMSNCSITSICEKPQEVCVAVWRKNDENITLETVCHDPKLPYHDFILEDAASPKCIMKEKKKPGETFFMCSCSSDECNDNIIFSEEYNTSNPDTKNQVSLTCLVKGFYPSDIAVEWESNGQPENNYKTTPPVLDSDGSFFLYSRLTVDKSRWQEGNVFSCSVMHEALHNHYTQKSLSLSLGKGGGGSGGGGSGGGGSSDTGRPFVEMYSEIPEIIHMTEGRELVIPCRVTSPNITVTLKKFPLDTLIPDGKRIIWDSRKGFIISNATYKEIGLLTCEATVNGHLYKTNYLTHRQTNTIIDVVLSPSHGIELSVGEKLVLNCTARTELNVGIDFNWEYPSSKHQHKKLVNRDLKTQSGSEMKKFLSTLTIDGVTRSDQGLYTCAASSGLMTKKNSTFVRVHEK light: DIQMTQSPSFLSASVGDRVTITCKASQNVGTNVAWYQQKPGKAPKALIYSASYRYSGVPSRFSGSGSGTEFTLTISSLQPEDFATYYCQQYYSYPYTFGQGTKLEIKRTVAAPSVFIFPPSDEQLKSGTASVVCLLNNFYPREAKVQWKVDNALQSGNSQESVTEQDSKDSTYSLSSTLTLSKADYEKHKVYACEVTHQGLSSPVTKSFNRGEC
– | – | – | 0.2 nM | 0.29 nM | aflibercept peptide (positive control) (other) SDTGRPFVEMYSEIPEIIHMTEGRELVIPCRVTSPNITVTLKKFPLDTLIPDGKRIIWDSRKGFIISNATYKEIGLLTCEATVNGHLYKTNYLTHRQTNTIIDVVLSPSHGIELSVGEKLVLNCTARTELNVGIDFNWEYPSSKHQHKKLVNRDLKTQSGSEMKKFLSTLTIDGVTRSDQGLYTCAASSGLMTKKNSTFVRVHEK
